Measurements as given in paper PMC10773898, “Evidence of DISC1 as an arsenic binding protein and implications regarding its role as a translational activator” (Frontiers in Molecular Biosciences, 2023).

Target: the molecule itself
Assay: SEC; HiLoad 26/600 Superdex 200 pg; 50 mM Tris-HCl, 10 mM NaCl, pH 8.0; self-association of the purified construct

| Protein | stoichiometry N | binding result |
| --- | --- | --- |
| DISC1 C-terminal construct (598-854), WT (domain or fragment, human, UniProt Q9NRI5-1 598-854, looked up, Disrupted-in-schizophrenia-1 (DISC1), human, residues 598-854, with W602F and W752F so that W691 is the single tryptophan; In pET28b(+) as His-tag fusion; also called DISC1 598-854; C-terminal WT construct; source: E. coli BL21 (DE3), purified (Ni-NTA, SEC)) GNHFFTAKDLTEEIRSLTSEREGLEGLLSKLLVLSSRNVKKLGSVKEDYNRLRREVEHQETAYETSVKENTMKYMETLKNKLCSCKCPLLGKVWEADLEACRLLIQSLQLQEARGSLSVEDERQMDDLEGAAPPIPPRLHSEDKRKTPLKVLEEFKTHLIPSLHCAGGEQKEESYILSAELGEKCEDIGKKLLYLEDQLHTAIHSHDEDLIQSLRRELQMVKETLQAMILQLQPAKEAGEREAAASCMTAGVHEAQA | 4 | – |
| DISC1 598-854 C680S/C682S/C698S/C762S/C782S/C844S (domain or fragment, human, UniProt Q9NRI5-1 598-854, looked up, DISC1, human, residues 598-854; source: E. coli BL21 (DE3), purified (Ni-NTA, SEC)) GNHFFTAKDLTEEIRSLTSEREGLEGLLSKLLVLSSRNVKKLGSVKEDYNRLRREVEHQETAYETSVKENTMKYMETLKNKLSSSKCPLLGKVWEADLEASRLLIQSLQLQEARGSLSVEDERQMDDLEGAAPPIPPRLHSEDKRKTPLKVLEEFKTHLIPSLHSAGGEQKEESYILSAELGEKSEDIGKKLLYLEDQLHTAIHSHDEDLIQSLRRELQMVKETLQAMILQLQPAKEAGEREAAASSMTAGVHEAQA | – | binds |
| DISC1 598-854 C684S/C698S/C762S/C782S/C844S (domain or fragment, human, UniProt Q9NRI5-1 598-854, looked up, DISC1, human, residues 598-854; source: E. coli BL21 (DE3), purified (Ni-NTA, SEC)) GNHFFTAKDLTEEIRSLTSEREGLEGLLSKLLVLSSRNVKKLGSVKEDYNRLRREVEHQETAYETSVKENTMKYMETLKNKLCSCKSPLLGKVWEADLEASRLLIQSLQLQEARGSLSVEDERQMDDLEGAAPPIPPRLHSEDKRKTPLKVLEEFKTHLIPSLHSAGGEQKEESYILSAELGEKSEDIGKKLLYLEDQLHTAIHSHDEDLIQSLRRELQMVKETLQAMILQLQPAKEAGEREAAASSMTAGVHEAQA | – | binds |
| DISC1 598-854 (C698S/C762S/C782S/C844S) (domain or fragment, human, UniProt Q9NRI5-1 598-854, looked up, DISC1, human, residues 598-854; also called WT*; pseudo-WT variant; source: E. coli BL21 (DE3), purified (Ni-NTA, SEC)) GNHFFTAKDLTEEIRSLTSEREGLEGLLSKLLVLSSRNVKKLGSVKEDYNRLRREVEHQETAYETSVKENTMKYMETLKNKLCSCKCPLLGKVWEADLEASRLLIQSLQLQEARGSLSVEDERQMDDLEGAAPPIPPRLHSEDKRKTPLKVLEEFKTHLIPSLHSAGGEQKEESYILSAELGEKSEDIGKKLLYLEDQLHTAIHSHDEDLIQSLRRELQMVKETLQAMILQLQPAKEAGEREAAASSMTAGVHEAQA | – | binds |
| DISC1 598-854 C680S/C684S/C698S/C762S/C782S/C844S (domain or fragment, human, UniProt Q9NRI5-1 598-854, looked up, DISC1, human, residues 598-854; source: E. coli BL21 (DE3), purified (Ni-NTA, SEC)) GNHFFTAKDLTEEIRSLTSEREGLEGLLSKLLVLSSRNVKKLGSVKEDYNRLRREVEHQETAYETSVKENTMKYMETLKNKLSSCKSPLLGKVWEADLEASRLLIQSLQLQEARGSLSVEDERQMDDLEGAAPPIPPRLHSEDKRKTPLKVLEEFKTHLIPSLHSAGGEQKEESYILSAELGEKSEDIGKKLLYLEDQLHTAIHSHDEDLIQSLRRELQMVKETLQAMILQLQPAKEAGEREAAASSMTAGVHEAQA | – | binds |
| DISC1 598-854 C680S/C682S/C684S/C698S/C762S/C782S/C844S (domain or fragment, human, UniProt Q9NRI5-1 598-854, looked up, DISC1, human, residues 598-854, all cysteines mutated to serine; also called C680S/C6802S/C684S*; C680S/C684S/C682S*; source: E. coli BL21 (DE3), purified (Ni-NTA, SEC)) GNHFFTAKDLTEEIRSLTSEREGLEGLLSKLLVLSSRNVKKLGSVKEDYNRLRREVEHQETAYETSVKENTMKYMETLKNKLSSSKSPLLGKVWEADLEASRLLIQSLQLQEARGSLSVEDERQMDDLEGAAPPIPPRLHSEDKRKTPLKVLEEFKTHLIPSLHSAGGEQKEESYILSAELGEKSEDIGKKLLYLEDQLHTAIHSHDEDLIQSLRRELQMVKETLQAMILQLQPAKEAGEREAAASSMTAGVHEAQA | – | binds |
| DISC1 598-854 C682S/C684S/C698S/C762S/C782S/C844S (domain or fragment, human, UniProt Q9NRI5-1 598-854, looked up, DISC1, human, residues 598-854; source: E. coli BL21 (DE3), purified (Ni-NTA, SEC)) GNHFFTAKDLTEEIRSLTSEREGLEGLLSKLLVLSSRNVKKLGSVKEDYNRLRREVEHQETAYETSVKENTMKYMETLKNKLCSSKSPLLGKVWEADLEASRLLIQSLQLQEARGSLSVEDERQMDDLEGAAPPIPPRLHSEDKRKTPLKVLEEFKTHLIPSLHSAGGEQKEESYILSAELGEKSEDIGKKLLYLEDQLHTAIHSHDEDLIQSLRRELQMVKETLQAMILQLQPAKEAGEREAAASSMTAGVHEAQA | – | binds |
| DISC1 598-854 C680S/C698S/C762S/C782S/C844S (domain or fragment, human, UniProt Q9NRI5-1 598-854, looked up, DISC1, human, residues 598-854; source: E. coli BL21 (DE3), purified (Ni-NTA, SEC)) GNHFFTAKDLTEEIRSLTSEREGLEGLLSKLLVLSSRNVKKLGSVKEDYNRLRREVEHQETAYETSVKENTMKYMETLKNKLSSCKCPLLGKVWEADLEASRLLIQSLQLQEARGSLSVEDERQMDDLEGAAPPIPPRLHSEDKRKTPLKVLEEFKTHLIPSLHSAGGEQKEESYILSAELGEKSEDIGKKLLYLEDQLHTAIHSHDEDLIQSLRRELQMVKETLQAMILQLQPAKEAGEREAAASSMTAGVHEAQA | – | binds |
| DISC1 598-854 C682S/C698S/C762S/C782S/C844S (domain or fragment, human, UniProt Q9NRI5-1 598-854, looked up, DISC1, human, residues 598-854; source: E. coli BL21 (DE3), purified (Ni-NTA, SEC)) GNHFFTAKDLTEEIRSLTSEREGLEGLLSKLLVLSSRNVKKLGSVKEDYNRLRREVEHQETAYETSVKENTMKYMETLKNKLCSSKCPLLGKVWEADLEASRLLIQSLQLQEARGSLSVEDERQMDDLEGAAPPIPPRLHSEDKRKTPLKVLEEFKTHLIPSLHSAGGEQKEESYILSAELGEKSEDIGKKLLYLEDQLHTAIHSHDEDLIQSLRRELQMVKETLQAMILQLQPAKEAGEREAAASSMTAGVHEAQA | – | binds |
